For one molecule, sensitivity of the test strip (lowest positive concentration) results are on record in patent US20210301295A1.

In the experiment the target is 6×His tag-AVI tag-DPP4 fusion protein, site-directed biotinylated and labeled with color latex throu (human), P27487. Conditions: remark: other sources report otherwise.

B1: Recombinant S1 protein of MERS-CoV, K9N5Q8 18-725 (ligand)
chain: YVDVGPDSVKSACIEVDIQQTFFDKTWPRPIDVSKADGIIYPQGRTYSNITITYQGLFPYQGDHGDMYVYSAGHATGTTPQKLFVANYSQDVKQFANGFVVRIGAAANSTGTVIISPSTSATIRKIYPAFMLGSSVGNFSDGKMGRFFNHTLVLLPDGCGTLLRAFYCILEPRSGNHCPAGNSYTSFATYHTPATDCSDGNYNRNASLNSFKEYFNLRNCTFMYTYNITEDEILEWFGITQTAQGVHLFSSRYVDLYGGNMFQFATLPVYDTIKYYSIIPHSIRSIQSDRKAWAAFYVYKLQPLTFLLDFSVDGYIRRAIDCGFNDLSQLHCSYESFDVESGVYSVSSFEAKPSGSVVEQAEGVECDFSPLLSGTPPQVYNFKRLVFTNCNYNLTKLLSLFSVNDFTCSQISPAAIASNCYSSLILDYFSYPLSMKSDLSVSSAGPISQFNYKQSFSNPTCLILATVPHNLTTITKPLKYSYINKCSRFLSDDRTEVPQLVNANQYSPCVSIVPSTVWEDGDYYRKQLSPLEGGGWLVASGSTVAMTEQLQMGFGITVQYGTDTNSVCPKLEFANDTKIASQLGNCVEYSLYGVSGRGVFQNCTAVGVRQQRFVYDAYQNLVGYYSDDGNYYCLRACVSVPVSVIYDKETKTHATLFGSVACEHISSTMSQYSRSTRSMLKRRDSTYGPLQTPVGCVLGLVNSSLFVE
Molecule B1 registered a sensitivity of the test strip (lowest positive concentration) of 10 nM.
